From US20150344570A1 (published 2015)

T1: FcγRIIb extracellular domain with C-terminal His tag (human, UniProt P31994 43-217)
T1 construct: extracellular domain; Soluble receptor expressed in FreeStyle293 cells and used as analyte in Biacore; also called FcgRIIb; 2b; not shown: His tag at the C terminus
T1 sequence (looked up): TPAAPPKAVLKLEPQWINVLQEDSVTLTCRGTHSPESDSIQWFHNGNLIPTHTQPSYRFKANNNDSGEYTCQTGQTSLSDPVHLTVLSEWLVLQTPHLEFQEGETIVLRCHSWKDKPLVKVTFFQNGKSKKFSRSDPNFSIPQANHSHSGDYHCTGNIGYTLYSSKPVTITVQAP


Legend:
[1] = biological target: T2, FcγRIIIa extracellular domain with C-terminal His tag (human, UniProt P08637 17-208); assay: SPR (Biacore); He/Con for FcγRIIIa divided by He/Con for FcγRIIb
T2 construct: extracellular domain; also called FcgRIIIa; 3a; not shown: His tag at the C terminus
T2 sequence (P08637 17-208): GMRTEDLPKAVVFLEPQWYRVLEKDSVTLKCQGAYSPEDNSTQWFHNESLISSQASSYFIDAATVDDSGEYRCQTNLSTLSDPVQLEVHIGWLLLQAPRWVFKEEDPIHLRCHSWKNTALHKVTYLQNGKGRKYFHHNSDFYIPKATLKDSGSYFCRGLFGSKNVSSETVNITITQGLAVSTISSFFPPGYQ
Procedure: (§1) The heterodimerized antibodies He Abs in which one of the H chains was introduced with an alteration were assayed for their binding activities to each activating FcγR and inhibitory FcγR according to the method described in Example 4. […] The activating FcγRs in FIGS. 26, 27, 28, and 29 are FcγRIa, FcγRIIa (R), FcγRIIa (H), and FcγRIIIa, respectively.
(§2) Analysis of interaction between objective antibody and the FcγR was carried out using Biacore T100 (GE Healthcare). HBS-EP+ (GE Healthcare) was used as the running buffer, and the measurement temperature was set to 25° C. Chips produced by immobilizing the antigen peptide by the amine coupling method to a Series S Sencor Chip CM5 (GE Healthcare), or alternatively, chips produced by allowing preliminarily biotinylated antigen peptides to interact with and immobilize onto a Series S Sensor Chip SA (certified) (GE Healthcare) were used. Antibodies of interest were captured onto an antigen peptide-immobilized chip, and allowed to interact to each FcγR diluted with running buffer. To regenerate and repeatedly use the chip, the antibodies captured on the chip were washed off by reacting 10 mM glycine-HCl, pH 1.5.

[2] = biological target: T1, FcγRIIb extracellular domain with …; assay: SPR (Biacore), antibody captured on antigen-peptide chip, FcγR as analyte; relative binding amount
Procedure: as §1, §2

[3] = biological target: T2, FcγRIIIa extracellular domain with …; assay: as above
Procedure: as §1, §2

[4] = biological target: T3, FcgRIIIa F (FcγRIIIa type F) extracellular domain with C-terminal His tag (human, UniProt P08637 17-208); assay: SPR (Biacore); relative binding activity of the heterodimerized antibody with the alteration in one H chain
T3 construct: extracellular domain; also called FcγRIIIa F; 3aF; not shown: His tag attached to the C terminus
T3 sequence (P08637 17-208): as above

Row | He_3a/2b (IIIa/IIb) [1] | He/Con_2b (IIb binding) [2] | He/Con_3a (IIIa binding) [3] | He/Con_3aF [4] | Binder
1 | 1.23 ratio | 115 relative, GpH7-A5/GpH7-B3/GpL16-k0 = 100 | 141 relative, GpH7-A5/GpH7-B3/GpL16-k0 = 100 |  | GpH7-A5/GpH7-B3 variant K334_14T/GpL16-k0 (antibody, human IgG1, kappa, Heterodimerized anti-glypican-3 IgG1 (He Ab); The mutation is in the GpH7-B3 chain only; also called He Ab with K334T in GpH7-B3) heavy 1: not shown heavy 2: not shown light: DIVMTQSPLSLPVTPGEPASISCQASESLVHSNRNTYLHWYLQKPGQSPQLLIYKVSNRFSGVPDRFSGSGSGTDFTLKISRVEAEDVGVYYCSQNTHVPPTFGQGTKVEIERTVAAPSVFIFPPSDEQLKSGTASVVCLLNNFYPREAKVQWKVDNALQSGNSQESVTEQDSKDSTYSLSSTLTLSKADYEKHKVYACEVTHQGLSSPVTKSFNRGEC
2 | 1.33 ratio | 89.8 relative, GpH7-A5/GpH7-B3/GpL16-k0 = 100 | 119 relative, GpH7-A5/GpH7-B3/GpL16-k0 = 100 |  | GpH7-A5/GpH7-B3 variant I336_10E/GpL16-k0 (antibody, human IgG1, kappa, Heterodimerized anti-glypican-3 IgG1 (He Ab); The mutation is in the GpH7-B3 chain only; also called He Ab with I336E in GpH7-B3) heavy 1: not shown heavy 2: not shown light: DIVMTQSPLSLPVTPGEPASISCQASESLVHSNRNTYLHWYLQKPGQSPQLLIYKVSNRFSGVPDRFSGSGSGTDFTLKISRVEAEDVGVYYCSQNTHVPPTFGQGTKVEIERTVAAPSVFIFPPSDEQLKSGTASVVCLLNNFYPREAKVQWKVDNALQSGNSQESVTEQDSKDSTYSLSSTLTLSKADYEKHKVYACEVTHQGLSSPVTKSFNRGEC
3 |  |  |  | 144 % of GpH7-A5/GpH7-B3/GpL16-k0 (= 100) | GpH7-A5/GpH7-B3 variant (A330F)/GpL16-k0 (antibody, human IgG1, kappa, also called He Ab A330_04F) heavy 1: not shown heavy 2: not shown light: DIVMTQSPLSLPVTPGEPASISCQASESLVHSNRNTYLHWYLQKPGQSPQLLIYKVSNRFSGVPDRFSGSGSGTDFTLKISRVEAEDVGVYYCSQNTHVPPTFGQGTKVEIERTVAAPSVFIFPPSDEQLKSGTASVVCLLNNFYPREAKVQWKVDNALQSGNSQESVTEQDSKDSTYSLSSTLTLSKADYEKHKVYACEVTHQGLSSPVTKSFNRGEC

Second part, the binder before the results:

Row | Binder | He_3a/2b (IIIa/IIb) [1] | He/Con_2b (IIb binding) [2] | He/Con_3a (IIIa binding) [3] | He/Con_3aF [4]
4 | GpH7-A5/GpH7-B3 variant I336_02A/GpL16-k0 (antibody, human IgG1, kappa, Heterodimerized anti-glypican-3 IgG1 (He Ab); The mutation is in the GpH7-B3 chain only; also called He Ab with I336A in GpH7-B3) heavy 1: not shown heavy 2: not shown light: DIVMTQSPLSLPVTPGEPASISCQASESLVHSNRNTYLHWYLQKPGQSPQLLIYKVSNRFSGVPDRFSGSGSGTDFTLKISRVEAEDVGVYYCSQNTHVPPTFGQGTKVEIERTVAAPSVFIFPPSDEQLKSGTASVVCLLNNFYPREAKVQWKVDNALQSGNSQESVTEQDSKDSTYSLSSTLTLSKADYEKHKVYACEVTHQGLSSPVTKSFNRGEC | 1.31 ratio | 84.9 relative, GpH7-A5/GpH7-B3/GpL16-k0 = 100 | 111 relative, GpH7-A5/GpH7-B3/GpL16-k0 = 100 | 
5 | GpH7-A5/GpH7-B3 variant (H268D)/GpL16-k0 (antibody, human IgG1, kappa, also called He Ab H268_09D) heavy 1: not shown heavy 2: not shown light: DIVMTQSPLSLPVTPGEPASISCQASESLVHSNRNTYLHWYLQKPGQSPQLLIYKVSNRFSGVPDRFSGSGSGTDFTLKISRVEAEDVGVYYCSQNTHVPPTFGQGTKVEIERTVAAPSVFIFPPSDEQLKSGTASVVCLLNNFYPREAKVQWKVDNALQSGNSQESVTEQDSKDSTYSLSSTLTLSKADYEKHKVYACEVTHQGLSSPVTKSFNRGEC |  |  |  | 195 % of GpH7-A5/GpH7-B3/GpL16-k0 (= 100)
6 | GpH7-A5/GpH7-B3 variant I336_15Y/GpL16-k0 (antibody, human IgG1, kappa, Heterodimerized anti-glypican-3 IgG1 (He Ab); The mutation is in the GpH7-B3 chain only; also called He Ab with I336Y in GpH7-B3) heavy 1: not shown heavy 2: not shown light: DIVMTQSPLSLPVTPGEPASISCQASESLVHSNRNTYLHWYLQKPGQSPQLLIYKVSNRFSGVPDRFSGSGSGTDFTLKISRVEAEDVGVYYCSQNTHVPPTFGQGTKVEIERTVAAPSVFIFPPSDEQLKSGTASVVCLLNNFYPREAKVQWKVDNALQSGNSQESVTEQDSKDSTYSLSSTLTLSKADYEKHKVYACEVTHQGLSSPVTKSFNRGEC | 1.28 ratio | 68.2 relative, GpH7-A5/GpH7-B3/GpL16-k0 = 100 | 87.3 relative, GpH7-A5/GpH7-B3/GpL16-k0 = 100 | 
7 | GpH7-A5/GpH7-B3 variant I336_19Q/GpL16-k0 (antibody, human IgG1, kappa, Heterodimerized anti-glypican-3 IgG1 (He Ab); The mutation is in the GpH7-B3 chain only; also called He Ab with I336Q in GpH7-B3) heavy 1: not shown heavy 2: not shown light: DIVMTQSPLSLPVTPGEPASISCQASESLVHSNRNTYLHWYLQKPGQSPQLLIYKVSNRFSGVPDRFSGSGSGTDFTLKISRVEAEDVGVYYCSQNTHVPPTFGQGTKVEIERTVAAPSVFIFPPSDEQLKSGTASVVCLLNNFYPREAKVQWKVDNALQSGNSQESVTEQDSKDSTYSLSSTLTLSKADYEKHKVYACEVTHQGLSSPVTKSFNRGEC | 1.59 ratio | 58.2 relative, GpH7-A5/GpH7-B3/GpL16-k0 = 100 | 92.5 relative, GpH7-A5/GpH7-B3/GpL16-k0 = 100 | 
8 | GpH7-A5/GpH7-B3 variant (A330M)/GpL16-k0 (antibody, human IgG1, kappa, also called He Ab A330_06M) heavy 1: not shown heavy 2: not shown light: DIVMTQSPLSLPVTPGEPASISCQASESLVHSNRNTYLHWYLQKPGQSPQLLIYKVSNRFSGVPDRFSGSGSGTDFTLKISRVEAEDVGVYYCSQNTHVPPTFGQGTKVEIERTVAAPSVFIFPPSDEQLKSGTASVVCLLNNFYPREAKVQWKVDNALQSGNSQESVTEQDSKDSTYSLSSTLTLSKADYEKHKVYACEVTHQGLSSPVTKSFNRGEC |  |  |  | 139 % of GpH7-A5/GpH7-B3/GpL16-k0 (= 100)
